Usually Kd stands for the constant that tells how readily two partners part at equilibrium. A higher Kd goes with lower affinity.

The target of assay [1] is pyrene-labeled ADP-actin filaments (chicken breast muscle actin) (chicken, UniProt P68139 1-377, pyrene (pyrene iodoacetamide) on cysteine-374). Kind of assay: other fluorescence titration.
For assay [2], the target named is Mg-ATP-actin monomer (chicken breast muscle actin) (chicken, UniProt P68139 1-377). Put plainly: inhibition of nucleotide exchange.

B1: cofilin-M3 (natural protein)
chain: MSFSGVKVSPECLEAFQELKLGKSLRYVVFKMNDTKTEIVVEKKSTDKDFDTFLGDLPEKDCRYAIYDFEFNLGEGVRNKIIFISWSPDVAPIKSKMVYSSSKDTLRRAFTGIGTDIQATDFSEVAYETVLAAVTRK
For the molecule B1, in assay [1], the “Ka of the cooperative model (Kd = 1/(ω*Ka))” value came out at 0.08 µM⁻¹ and the Kd came to 890 nM. Further, the Kd in assay [2] amounted to 170 nM.

For the origin of these results see paper PMC3206353 (The Journal of Cell Biology, 2011).
